Measurements: PMC12510028, “A biophysical and molecular characterization of the interaction between the Alzheimer risk factor BIN1 and the neuronal scaffold protein p140Cap” (The Journal of Biological Chemistry, 2025)

How the values were obtained:
nsP3 (Chikungunya virus) = nsP3 (Chikungunya virus) (UniProt Q8JUX6); details: cited from earlier work
BIN1 SH3 domain = target: T1, BIN1 SH3 domain (Homo sapiens, UniProt O00499); assay: SPR equilibrium affinity of peptides for biotinylated BIN1-SH3 domain; type: binding; details: for Kd: SPR Biacore S200, Biotin CAPture chip, Avi-BIN1-SH3 immobilised as ligand, peptide as analyte, reference cell CTX-M-14 subtracted, 25 °C, PBS-P+, steady-state 1:1 fit, mean ± SD of three technical replicates, p140Cap peptides tested 0.6–75 μM; for binding to BIN1-SH3 in words: SPR, tested analyte concentrations 0.6–75 μM
T1 construct: His (N); made in house; host or cells: E. coli BL21 (DE3)
T1 sequence (O00499 520-593 limits assumed): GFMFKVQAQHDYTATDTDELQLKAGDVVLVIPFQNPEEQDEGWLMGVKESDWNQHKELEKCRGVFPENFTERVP
Procedure: We undertook a candidate approach to identify biologically relevant neuronal proteins that interact with BIN1’s SH3 domain (Fig. 1A). First, we referenced published KD calculations for several BIN1 SH3 domain ligands ([45]), setting a KD cut-off at <10 μM for our study. Then, we obtained a published index of potential protein interactors from a study that computationally predicted the top 100 peptide binding partners for each of 70 human SH3 domains, generated by SH3PepInt, an alignment-free, graph kernel-based tool ([46]). We curated the predicted BIN1 SH3-binding proteins using a set of criteria to ensure: 1) neuronal expression, 2) subcellular localization at the synapse, and 3) molecular functions relevant to neuronal BIN1 in neurotransmitter vesicle dynamics ([25]). We then utilized available protein structures in the Protein Data Bank or those predicted by AlphaFold to confirm the accessibility of each putative SH3-binding site within the full-length protein, prioritizing peptides known to adopt the left-handed polyproline-II helix. From these analyses, we nominated 10 proteins for an initial screening using 14-mer peptides in surface plasmon resonance (SPR) analysis (Fig. 1B). The purified Avi-tagged BIN1 SH3 domain was immobilized as the ligand on flow cell 2, while a nonbinding control protein was immobilized on flow cell 1 (Fig. S1). Subsequently, each peptide was injected in solution over the sensor surface as the analyte (Fig. 1B). To correct for nonspecific binding, response units from flow cell 1 were subtracted from those of flow cell 2 to determine the KD.
The ^1033KPSKSPPPPPPRRS^1046 p140Cap peptide harbors three canonical PRMs: class I, ^1036KSPPPPP^1042; class IIa, ^1038PPPPPRR^1045; and class IIb, ^1037PPPPPPR^1044 (Fig. 2A). […] Thus, we used SPR in combination with alanine-scanning mutagenesis to determine which of the three class motifs on p140Cap mediates binding to BIN1’s SH3 domain. We synthesized 14-mer peptides with alanine substitutions at either the basic residues alone or in combination with the corresponding prolines for all three canonical PRM classes. We also synthesized 7-mer peptides containing the native core motif for cross-referencing (Fig. 2B). […] We reasoned that alanine substitution of residues not involved in BIN1-SH3 binding would produce similar, if not identical, KDs to the native 14-mer peptide. […] Thus, we would be able to identify the precise motif responsible for facilitating the BIN1–p140Cap interaction.
All experiments were conducted using the Biacore S200 (GE Healthcare), equipped with a series S Biotin Capture chip (Cytiva Life Sciences) at 25 °C in 1X PBS-P + [0.2 M phosphate buffer with 27 mM KCl, 1.37 M NaCl, and 0.5% surfactant P20 (Tween 20)] running buffer. The chip surface was first conditioned with three 1-min injections of regeneration solution (3:1 8 M guanidine-HCl: 1 M NaOH) immediately after docking. Biotin CAPture reagent (50 μg/ml in HBS-EP buffer [0.01 M Hepes (pH 7.4), 0.15 M NaCl, 3 mM EDTA, 0.005% surfactant P20]), 3.4 ml) was immobilized on the chip surface at a flow rate of 2 μl/min for 5 min prior to ligand immobilization. Affinity run assays were conducted by immobilizing 50 μg/ml Avi-BSH3 (12 kDa, >90% pure based on SDS-PAGE) diluted in 1X PBS-P+ running buffer at 5 ul/min for 60 s on a streptavidin-coated matrix on flow cell 2. Additionally, 50 μg/ml Avi-tagged nonbinding protein (CTX-M-14 β-lactamase, 30 kDa, >90% pure based on SDS-PAGE) diluted in 1X PBS-P+ running buffer was immobilized at 5 μl/min for 60 s on flow cell 1 to serve as a reference surface for subtraction of bulk refractive index background. To collect affinity data, the analytes were diluted in running buffer and injected over the two flow cells in serial dilution at a flow rate of 30 μl/min. The complexes were allowed to associate and dissociate for 30 s and 300 s, respectively. The surfaces were then regenerated with three 60 s injections of regeneration solution. […]

[1] = target: GST-tagged BIN1-SH3 domain MutK (K30R, rs138047593) (human); assay: pull-down; 25 μg GST or GST-BSH3 (WT or mutant) on glutathione-Sepharose with 0.5 mg of 1% Triton X-100 soluble mouse brain homogenate, 2 h at room temperature; washes with 50 mM KCl, 150 mM NaCl, 1.5% IGEPAL; immunoblot for p140Cap and total tau
[2] = target: Avi-tagged BIN1 SH3 domain (human) (UniProt O00499); assay: SPR; Biacore S200, Biotin CAPture chip; biotinylated Avi-BIN1-SH3 captured on flow cell 2, Avi-tagged CTX-M-14 β-lactamase on reference flow cell 1; peptides injected as analytes at 30 μl/min; 25 °C, 1X PBS-P+; steady-state analysis, 1:1 model
[3] = target: T2, Avi-tagged BIN1 SH3 domain (human, UniProt O00499 520-593, biotin within the 15 amino acid AviTag peptide (enzymatic, in E. coli)); assay: SPR
T2 chain: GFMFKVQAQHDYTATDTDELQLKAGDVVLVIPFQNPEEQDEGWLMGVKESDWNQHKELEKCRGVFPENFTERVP

[4] = target: T2, Avi-tagged BIN1 SH3 domain; assay: SPR
[5] = target: T3, Avi-tagged BIN1 SH3 domain (human, UniProt O00499 520-593, biotin within the 15 amino acid AviTag peptide (enzymatic, in E. coli)); assay: SPR; Biacore S200, Biotin CAPture chip; biotinylated Avi-BIN1-SH3 captured on flow cell 2, Avi-tagged CTX-M-14 β-lactamase on reference flow cell 1; peptides injected as analytes at 30 μl/min; 25 °C, 1X PBS-P+; steady-state analysis, 1:1 model; details: both partners purified
T3 construct: human BIN1 (bridging integrator 1), the C-terminal 81 amino acids that encompass the SH3 domain; 12 kDa by the methods; vector pAviBir, insert between BamHI and NotI; also called Avi-BSH3; AviBir-Bin1 SH3; source: E. coli BL21 (DE3), purified (HisTrap HP, Sephacryl S-200 gel filtration); not shown: AviTag, N-terminal, kept
T3 sequence (looked up): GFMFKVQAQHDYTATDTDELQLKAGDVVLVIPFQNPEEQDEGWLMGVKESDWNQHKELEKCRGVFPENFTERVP

## BIN1 SH3 (from UniProt O00499)
nsP3 (Chikungunya virus)
  Kd: 0.024 µM

## Ac-KPSKSPAPPAPARS-NH2 [KPSKSPAPPAPARS]
BIN1 SH3 domain
  Kd: > 75 µM

## Ac-ERSLVGFGPPVPAK-NH2 [p140Cap583-596]
BIN1 SH3 domain
  Kd: > 75 µM

## Ac-KPSKSPPAPPARAS-NH2 [KPSKSPPAPPARAS]
BIN1 SH3 domain
  Kd: > 75 µM

## tau from mouse brain (from UniProt P10637-2 1-430) (natural protein)
[1]
  fold less bound than to WT BIN1-SH3: 2 fold

## Ac-KSPPPPP-NH2 (N-terminus and C-terminus assumed) [KSPPPPP]
BIN1 SH3 domain
  binding to BIN1-SH3 in words: no binding within the range of tested analyte concentrations

## p140Cap 14-mer peptide 1033-1046 with alanine substitution of the C-terminal arginine (class IIa) (from UniProt Q9C0H9 1033-1046)
[2]
  Kd: 26.3 µM

## p140Cap 14-mer peptide 1033-1046 with alanine substitution of the class I lysine and its corresponding prolines (from UniProt Q9C0H9 1033-1046)
[2]
  Kd: 21 µM

## Ac-GYGFRLPPSSPQKL-NH2 [p140Cap498-512]
BIN1 SH3 domain
  Kd: > 75 µM

## p140Cap 14-mer peptide 1033-1046 with alanine substitution of the class I lysine (from UniProt Q9C0H9 1033-1046)
[2]
  Kd: 6.32 µM

## Ac-PPPPPPR-NH2 (N-terminus and C-terminus assumed) [PPPPPPR]
BIN1 SH3 domain
  binding to BIN1-SH3 in words: outside the range of tested analyte concentrations

B1: p140Cap 14-mer peptide 583-596 (peptide)
peptide: Ac-ERSLVGFGPPVPAK-NH2
[3]
  Kd: > 75 µM

B2: p140Cap native class I 7-mer peptide (peptide)
peptide: KSPPPPP
[4]
  Kd: > 75 µM

B3: p140Cap native class IIa 7-mer peptide (peptide)
peptide: PPPPPRR
notes: human p140Cap, class IIa PRM of the C-terminal proline-rich domain; source: synthetic peptide
[5]
  Kd: 31.7 µM

B4: p140Cap from mouse brain (natural protein)
chain: MQPWQCLRRFALAWWERTAEGRARSPREEVGPRDPGGRGEPDPERSSPPMLSADDAEYPREYRTLGGGGGGGSGGRRFSNVGLVHTSERRHTVIAAQSLEALSGLQKADADRKRDAFMDHLKSKYPQHALALRGQQDRMREQVGGWTVDPVCLLSSLCSHLHGDSTPSGAGQPAQQPNYWSFKTRSSRHTQGAQPGLADQAAKLSYASAESLETMSEAELPLGFSRMNRFRQSLPLSRSASQTKLRSPGVLFLQFGEETRRVHITHEVSSLDTLHALIAHMFPQKLTMGMLKSPNTAILIKDEARNVFYELEDVRDIQDRSIIKIYRKEPLYAAFPGSHLTNGDLRREMVYASRESSPTRRLNNLSPASHLASSSPPPGLPSGLPSGLPSGSPSRSRLSYAGGRPPSYAGSPVHHAAERLGGAPTGQGVSPSPSAILERRDVKPDEDLAGKAGGMVLVKGEGLYADPYGLLHEGRLSLAAAAETHSHTRARAACTSGVPCALSAPTPLPRCSPTWRTRCTRRALAALYGDGYGFRLPPSSPQKLADVSAPSGGPPPPHSPYSGPPSRGSPVRQSFRKDSGSSSVFAESPGGKARSTGSASTAGAPPSELFPGPGERSLVGFGPPVPAKDTETRERMEAMEKQIASLTGLVQSALLRGSEPETPSEKVEGSNGAATPSAPVCGSGSKSSGATPVSGPPPPSASSTPAGQPTAVSRLQMQLHLRGLQNSASDLRGQLQQLRNVQLQNQESVRALLKPTEADVSMRVSEAARRQEDPLQRQRTLVEEERLRYLNDEELITQQLNDLEKSVEKIQRDVAHNHRLMPGPELEEKALVLKQLGETLTELKAHFPGLQSKMRVVLRVEVEAVKFLKEEPQRLDGLLKRCRGVTDTLAQIRRQVDEGMWPPPNNLLNQSPKKVAAETDFSKGLDFEIPPPSPPLNLHELSGPAEGTPLTPKSTNPTKCLDASSKRNTDKAVSVEAAERDWEEKRAALTQYSAKDINRLLEETQAELLKAIPDLDCASKTHPGPAPTPDHKPPKAPHGQKAAPRTEPSGRRGSDELTVPRYRTEKPSKSPPPPPPRRSFPSSHGLTTTRTGEVVVTSKKDSVFIKKAESEELEVQKPQVKLRRAVSEVVRPASTPPIMASAIKDEDDEERIIAELESGGSSVPPMKVVTPGASRLKAAQGPAGSPDKGKHGKQRTEYMRIQAQQQATKPSKEVSGPNETSSPGSEKPSGSRTSIPVLTSFGARNSSISF
[1]
  fold less bound than to WT BIN1-SH3: 2.6 fold

B5: p140Cap 14-mer peptide 1033-1046 (peptide)
peptide: Ac-KPSKSPPPPPPRRS-NH2
notes: also called p140Cap_(1033-1046); native 14-mer peptide; source: synthetic peptide (GenScript, reversed-phase HPLC, ≥95% purity)
[5]
  Kd: 7.7 µM

B6: tau 6-mer peptide 158-163 (peptide)
peptide: PTPPTR
notes: tau, proline-rich domain, minimum consensus class II PRM; The methods tell acetylation and amination of the ends only for the 14-residue peptides; also called tau_(158-163); 6-mer tau peptide; source: synthetic peptide
[5]
  Kd: 288 µM

B7: p140Cap native class IIb 7-mer peptide (peptide)
peptide: PPPPPPR
[4]
  Kd: > 75 µM

B8: p140Cap 14-mer peptide 498-512 (peptide)
peptide: Ac-GYGFRLPPSSPQKL-NH2
[3]
  Kd: > 75 µM

B9: p140Cap 14-mer peptide 1033-1046 with alanine substitution of the N-terminal arginine (class IIb) (peptide)
chain: Ac-KPSKSPPPPPPARS-NH2
[4]
  Kd: > 75 µM

B10: p140Cap 14-mer peptide 1033-1046 with alanine substitution of the class IIa arginine and its corresponding prolines (peptide)
chain: Ac-KPSKSPPAPPARAS-NH2
[5]
  Kd: > 75 µM

B11: tau 13-mer peptide 154-166 (peptide)
peptide: TPSLPTPPTREPK
notes: tau, proline-rich domain, class II PRM extended at both ends; The methods tell acetylation and amination of the ends only for the 14-residue peptides; also called tau_(154-166); 13-mer tau peptide; source: synthetic peptide
[5]
  Kd: 484 µM
